The text below walks through data of patent publication US20170173114A1, “METHODS AND COMPOSITIONS FOR INDUCTION OF UCP1 EXPRESSION” (Joslin Diabetes Center, Inc., priority 2014, published 2017).

“Also recorded” adds a separate entry of the source.

Experiment [1] relates to WT-1 brown preadipocytes. Briefly: 2-deoxy-[3H]glucose uptake in WT-1 brown preadipocytes. Type of experiment: cell-based, murine. The conditions noted are these: FGF6 overexpressing vs control and EGF. How it is done:
(§1) The following glucose uptake assay was used to determine whether FGF6 could impact cellular glucose uptake. Specifically, glucose uptake was monitored in WT-1 brown preadipocytes and 3T3-F442A white preadipocytes in the presence or absence of FGF6. After serum starvation in DMEM/H medium containing 1% of BSA for 2-3 h, cells were washed with HEPES buffer and then incubated with or without 100 nM insulin for 30 min in DMEM/H medium containing 1% of BSA. Glucose transport was determined by the addition of 2-deoxy-[3H]glucose (0.1 mM, 0.5 μCi/mL; PerkinElmer Life and Analytical Science, Waltham, Mass.). After 5 minutes of incubation, the reaction was stopped by ice-cold PBS and cells were washed twice with ice-cold PBS. Cells were then lysed in 0.1% SDS, and glucose uptake was assessed in 4 mL of scintillant using Beckman LS6500 scintillation counter (Beckman Coulter, Indianapolis Ind.). Nonspecific 2-deoxy-[3H]glucose uptake was measured in the presence of cytochalasin B (20 μM) and was subtracted from the total uptake to get specific glucose uptake. Results were expressed as the mean±s.e.m. of the indicated number of experiments. The protein content was determined by the Bradford method.
The role of PGs in regulating mitochondrial function and cellular glucose uptake was also assessed. […]

Experiment [2] concerns 3T3-F442A white preadipocytes. Briefly: 2-deoxy-[3H]glucose uptake in 3T3-F442A white preadipocytes. It is filed as cell-based. The conditions noted are these: FGF6 overexpressing vs control and EGF. How it is done: as §1
Experiment [3] has as its system UCP1. Briefly: UCP1 mRNA expression in SVF cells from subcutaneous white adipose tissue (SQ-SVF). It is filed as cell-based, C57BL/6 mice. The conditions noted are these: growth media, 3 days; vs control. Here is the method:
(§2) Eight 6-week old C57BL/6 male mice were sacrificed. Interscapular BAT and axillary subcutaneous WAT were removed, minced and digested with 1 mg/ml collagenase for 45 minutes at 37° C. in DMEM/F12 media, containing 1% BSA and antibiotics. Digested tissues were filtered through sterile 150 μm nylon mesh and centrifuged at 250×g for 5 minutes. The floating fractions consisting of adipocytes were discarded and the pellets representing the SVF were then resuspended in erythrocyte lysis buffer (154 mM NH4Cl, 10 mM KHCO3, 0.1 mM EDTA) for 10 minutes to remove red blood cells. The cells were further centrifuged at 500×g for 5 minutes, plated at 8×10^5 cells/well of a 24-well plate and grown at 37° C. in DMEM/F12 supplemented with 10% FBS at 37° C.
(§3) To determine if FGF6 treatment of primary adipose progenitors could also increase UCP1 expression as observed in Example 1, stromo-vascular fraction (SVF) cells, which comprise adipocyte progenitors, were isolated from interscapular brown adipose tissue (BAT-SVF) and subcutaneous white adipose tissue (SQ-SVF). SVF cells were subsequently treated with FGF6 or FGF21 in growth media (DMEM+10% FBS) for 3 days, followed by determination of UCP1 expression. As described in FIGS. 9A and 9B, FGF21 treatment had little effect on UCP1 mRNA expression in either type of SVF cells, as compared to the control. […]

For experiment [4], the system named is UCP1. Description: UCP1 mRNA expression in SVF cells from interscapular brown adipose tissue (BAT-SVF). Type of experiment: cell-based, C57BL/6 mice. The note with it: growth media, 3 days; vs control. Here is the method:
as §2, §3

Experiment [5] concerns UCP1. Description: UCP1 mRNA expression in C2C12 myogenic progenitors. It is filed as cell-based. The note with it: three days.
The test system of experiment [6] is UCP1. Description: UCP1 mRNA expression (Q-RT-PCR) in WT-1 brown preadipocytes. Type of experiment: cell-based, murine. Here is the method: Total RNA was isolated with QIAzol lysis reagent (Qiagen, Valencia, Calif.) and purified by RNeasy Mini columns (Qiagen) following the manufacture's instructions. cDNA was prepared from total RNA using the Advantage RT-PCR kit (BD Biosciences, Palo Alto, Calif.) according to manufacturer's instructions. Diluted cDNA was used in a PCR reaction with SYBR Green Master Mix (Applied Biosystems, Foster City, Calif.) and primers specifically designed for detection of the gene of interest. PCR reactions were run in duplicate for each sample and quantitated in the ABI Sequence Detection System (Applied Biosystems). Data were expressed as arbitrary units after normalization to levels of expression of internal controls for each sample. Sequences of primers for specific genes are each obtained from the published literature or designed using publically available gene sequence databases. Unless otherwise indicated, gene expression data described in the examples below was obtained using QPCR.
The effect of FGF6 on differentiation of WT-1 murine brown preadipocytes was also examined. WT-1 cells can be induced to undergo brown adipocyte differentiation, characterized by lipid accumulation and expression of adipogenic and brown fat markers, as described above (Klein et al. (1999) J Biol Chem 274:34795; Tseng et al. (2005) Nat Cell Biol 7:601). WT-1 cells were treated with FGF6 in growth media (DMEM+10% FBS), a vehicle control (“control” or “C” referred to in FIGS. 3A-D), or induction media (“induction” or “I” referred to in FIGS. 3A-D) as described above for seven days. Following the treatment, cells were examined for the color of the culture media in combination with oil Red O staining, expression of adipogenic markers, expression of brown fat markers, immunofluorescent staining of cells with UCP1 and DPAI, and Western blot analysis to determine the presence of UCP1 and β-tubulin. The results are described in FIGS. 3A to 3D.
UCP1 mRNA expression in brown adipocyte cells was determined at FGF6 concentrations ranging from 0 to 300 ng/ml in the absence of induction cocktail.
In order to determine the length of time necessary to induce UCP1 expression upon exposure to of cells to FGF6, an experiment was performed whereby FGF6 was administered to brown preadipocytes at a concentration of 200 ng/ml and UCP1 expression was determined. FGF21 and a control were also used in the time course experiment. FGF21, a member of the endocrine FGF ligands that has been implicated in the browning of white fat (Fisher F. M. et al., Genes Dev. 26:271-281, 2012). […] FGF6 could acutely induce a significant increase of UCP1 expression as early as 4 hours after a 200 ng/ml dose, as described in FIG. 4B. At 24 hours, the fold-induction of UCP1 mRNA by FGF6 reached 700-fold higher than the untreated cells, as described in FIG. 4B.
To assess FGF6's role in the regulation of mitochondrial activity, FGF6 was stably expressed in WT-1 brown preadipocytes and 3T3-F442A white preadipocytes. Stable cells were generated by viral infection followed by drug selection.
FGF2, FGF6 and FGF9 were used at a dosage of 50 ng/mL, 100 ng/mL, 200 ng/mL or 300 ng/mL. FGF21 was used at the dosage of 50 ng/ml and 500 ng/mL. The concentration of BMP7 was 3.3 nM. RNA was isolated and UCP1 and PPARγ expression levels were evaluated by quantitative reverse transcription polymerase chain reaction (Q-RT-PCR) analysis after 24 hours (i.e., 1 day) (FIG. 14A), 2 days (FIG. 14B), 5 days (FIG. 14C) and 7 days (FIG. 14D) of treatment. All experiments were performed triplicate and the data are presented as mean+/−SEM.
FGF2, FGF6 and FGF9 were used at a dosage of 200 ng/mL. FGF21 was used at a dosage of 500 ng/mL. The concentration of BMP7 was 3.3 nM. mRNA was isolated and UCP1 and PPARγ expression levels were evaluated by quantitative reverse transcription polymerase chain reaction (Q-RT-PCR) analysis after 24 hours (i.e., 1 day), 2 days, 5 days and 7 days of treatment (FIG. 15). […]

The mark [7] stands for this setting: FGF21 50 and 500 ng/mL, BMP7 3.3 nM, with insulin and T3.

B1: EGF: control treatment in glucose uptake assay (protein, UniProt P01133 23-1207, looked up)
Pro-epidermal growth factor: PQHWSCPEGTLAGNGNSTCVGPAPFLIFSHGNSIFRIDTEGTNYEQLVVDAGVSVIMDFHYNEKRIYWVDLERQLLQRVFLNGSRQERVCNIEKNVSGMAINWINEEVIWSNQQEGIITVTDMKGNNSHILLSALKYPANVAVDPVERFIFWSSEVAGSLYRADLDGVGVKALLETSEKITAVSLDVLDKRLFWIQYNREGSNSLICSCDYDGGSVHISKHPTQHNLFAMSLFGDRIFYSTWKMKTIWIANKHTGKDMVRINLHSSFVPLGELKVVHPLAQPKAEDDTWEPEQKLCKLRKGNCSSTVCGQDLQSHLCMCAEGYALSRDRKYCEDVNECAFWNHGCTLGCKNTPGSYYCTCPVGFVLLPDGKRCHQLVSCPRNVSECSHDCVLTSEGPLCFCPEGSVLERDGKTCSGCSSPDNGGCSQLCVPLSPVSWECDCFPGYDLQLDEKSCAASGPQPFLLFANSQDIRHMHFDGTDYGTLLSQQMGMVYALDHDPVENKIYFAHTALKWIERANMDGSQRERLIEEGVDVPEGLAVDWIGRRFYWTDRGKSLIGRSDLNGKRSKIITKENISQPRGIAVHPMAKRLFWTDTGINPRIESSSLQGLGRLVIASSDLIWPSGITIDFLTDKLYWCDAKQSVIEMANLDGSKRRRLTQNDVGHPFAVAVFEDYVWFSDWAMPSVMRVNKRTGKDRVRLQGSMLKPSSLVVVHPLAKPGADPCLYQNGGCEHICKKRLGTAWCSCREGFMKASDGKTCLALDGHQLLAGGEVDLKNQVTPLDILSKTRVSEDNITESQHMLVAEIMVSDQDDCAPVGCSMYARCISEGEDATCQCLKGFAGDGKLCSDIDECEMGVPVCPPASSKCINTEGGYVCRCSEGYQGDGIHCLDIDECQLGEHSCGENASCTNTEGGYTCMCAGRLSEPGLICPDSTPPPHLREDDHHYSVRNSDSECPLSHDGYCLHDGVCMYIEALDKYACNCVVGYIGERCQYRDLKWWELRHAGHGQQQKVIVVAVCVVVLVMLLLLSLWGAHYYRTQKLLSKNPKNPYEESSRDVRSRRPADTEDGMSSCPQPWFVVIKEHQDLKNGGQPVAGEDGQAADGSMQPTSWRQEPQLCGMGTEQGCWIPVSSDKGSCPQVMERSFHMPSYGTQTLEGGVEKPHSLLSANPLWQQRALDPPHQMELTQ
modifications: Pro-epidermal growth factor
For B1, in experiment [1], the “glucose uptake level in WT-1 (brown) preadipocytes” value is “no substantial effect”. The “glucose uptake level in F442A (white) preadipocytes” value in experiment [2] is reported as “no substantial effect”.

B2: FGF21: fibroblast growth factor 21, member of the endocrine FGF ligands (protein, listed as Homo sapiens)
chain: MDSDETGFEHSGLWVSVLAGLLLGACQAHPIPDSSPLLQFGGQVRQRYLYTDDAQQTEAHLEIREDGTVGGAADQSPESLLQLKALKPGVIQILGVKTSRFLCQRPDGALYGSLHFDPEACSFRELLLEDGYNVYQSEAHGLPLHLPGNKSPHRDPAPRGPARFLPLPGLPPALPEPPGILAPQPPDVGSSDPLSMVGPSQGRSPSYAS
Turning to B2, in experiment [3], the “effect on UCP1 mRNA expression in SQ-SVF” value is “little effect”. Besides, the “effect on UCP1 mRNA expression in BAT-SVF” value in experiment [4] is “little effect”. Further, the “UCP1 mRNA expression in C2C12 myogenic progenitors” value in experiment [5] is given as “neither FGF6 nor FGF21 induced UCP1 mRNA expression; also recorded: no induction of UCP1”. In addition, the “UCP1 expression level, time course” value in experiment [6] (FGF2, FGF6, FGF9 200 ng/mL, FGF21 500 ng/mL, with insulin and T3, 1, 2, 5, 7 days) is given as “did not express detectable amounts of UCP1”. Further, in experiment [6] (setting [7]), the “UCP1 expression level at day 7” value is reported as “only minimal amounts”; the “UCP1 expression level at days 1, 2 and 5” value is given as “did not express detectable amounts of UCP1”. In experiment [6] (data not shown), the “effect on UCP1 expression in brown preadipocytes cultured in growth media” value is “marginal effect”.
